Source: PMC4169579, “Proteolytic Activity of Prostate-Specific Antigen (PSA) towards Protein Substrates and Effect of Peptides Stimulating PSA Activity” (PLoS ONE, 2014)
Values joined by “and” are separate entries in the source; they are usually repeats but may differ in a detail not shown here. Equal entries are not always repeated.

B1: semenogelin II: isolated from human seminal fluid (protein, UniProt Q02383 24-582, looked up)
Semenogelin-2: QKGGSKGQLPSGSSQFPHGQKGQHYFGQKDQQHTKSKGSFSIQHTYHVDINDHDWTRKSQQYDLNALHKATKSKQHLGGSQQLLNYKQEGRDHDKSKGHFHMIVIHHKGGQAHHGTQNPSQDQGNSPSGKGLSSQCSNTEKRLWVHGLSKEQASASGAQKGRTQGGSQSSYVLQTEELVVNKQQRETKNSHQNKGHYQNVVDVREEHSSKLQTSLHPAHQDRLQHGPKDIFTTQDELLVYNKNQHQTKNLSQDQEHGRKAHKISYPSSRTEERQLHHGEKSVQKDVSKGSISIQTEEKIHGKSQNQVTIHSQDQEHGHKENKISYQSSSTEERHLNCGEKGIQKGVSKGSISIQTEEQIHGKSQNQVRIPSQAQEYGHKENKISYQSSSTEERRLNSGEKDVQKGVSKGSISIQTEEKIHGKSQNQVTIPSQDQEHGHKENKMSYQSSSTEERRLNYGGKSTQKDVSQSSISFQIEKLVEGKSQIQTPNPNQDQWSGQNAKGKSGQSADSKQDLLSHEQKGRYKQESSESHNIVITEHEVAQDDHLTQQYNEDRNPIST
B2: nidogen-1: recombinant human nidogen-1, linker protein in the basement membrane (protein, UniProt P14543 29-1247, looked up)
Nidogen-1: LSRQELFPFGPGQGDLELEDGDDFVSPALELSGALRFYDRSDIDAVYVTTNGIIATSEPPAKESHPGLFPPTFGAVAPFLADLDTTDGLGKVYYREDLSPSITQRAAECVHRGFPEISFQPSSAVVVTWESVAPYQGPSRDPDQKGKRNTFQAVLASSDSSSYAIFLYPEDGLQFHTTFSKKENNQVPAVVAFSQGSVGFLWKSNGAYNIFANDRESVENLAKSSNSGQQGVWVFEIGSPATTNGVVPADVILGTEDGAEYDDEDEDYDLATTRLGLEDVGTTPFSYKALRRGGADTYSVPSVLSPRRAATERPLGPPTERTRSFQLAVETFHQQHPQVIDVDEVEETGVVFSYNTDSRQTCANNRHQCSVHAECRDYATGFCCSCVAGYTGNGRQCVAEGSPQRVNGKVKGRIFVGSSQVPIVFENTDLHSYVVMNHGRSYTAISTIPETVGYSLLPLAPVGGIIGWMFAVEQDGFKNGFSITGGEFTRQAEVTFVGHPGNLVIKQRFSGIDEHGHLTIDTELEGRVPQIPFGSSVHIEPYTELYHYSTSVITSSSTREYTVTEPERDGASPSRIYTYQWRQTITFQECVHDDSRPALPSTQQLSVDSVFVLYNQEEKILRYALSNSIGPVREGSPDALQNPCYIGTHGCDTNAACRPGPRTQFTCECSIGFRGDGRTCYDIDECSEQPSVCGSHTICNNHPGTFRCECVEGYQFSDEGTCVAVVDQRPINYCETGLHNCDIPQRAQCIYTGGSSYTCSCLPGFSGDGQACQDVDECQPSRCHPDAFCYNTPGSFTCQCKPGYQGDGFRCVPGEVEKTRCQHEREHILGAAGATDPQRPIPPGLFVPECDAHGHYAPTQCHGSTGYCWCVDRDGREVEGTRTRPGMTPPCLSTVAPPIHQGPAVPTAVIPLPPGTHLLFAQTGKIERLPLEGNTMRKTEAKAFLHVPAKVIIGLAFDCVDKMVYWTDITEPSIGRASLHGGEPTTIIRQDLGSPEGIAVDHLGRNIFWTDSNLDRIEVAKLDGTQRRVLFETDLVNPRGIVTDSVRGNLYWTDWNRDNPKIETSYMDGTNRRILVQDDLGLPNGLTFDAFSSQLCWVDAGTNRAECLNPSQPSRRKALEGLQYPFAVTSYGKNLYFTDWKMNSVVALDLAISKETDAFQPHKQTRLYGITTALSQCPQGHNYCSVNNGGCTHLCLATPGSRTCRCPDNTLGVDCIEQK
B3: semenogelin I: isolated from human seminal fluid (protein, UniProt P04279 24-462, looked up)
Semenogelin-1: QKGGSKGRLPSEFSQFPHGQKGQHYSGQKGKQQTESKGSFSIQYTYHVDANDHDQSRKSQQYDLNALHKTTKSQRHLGGSQQLLHNKQEGRDHDKSKGHFHRVVIHHKGGKAHRGTQNPSQDQGNSPSGKGISSQYSNTEERLWVHGLSKEQTSVSGAQKGRKQGGSQSSYVLQTEELVANKQQRETKNSHQNKGHYQNVVEVREEHSSKVQTSLCPAHQDKLQHGSKDIFSTQDELLVYNKNQHQTKNLNQDQQHGRKANKISYQSSSTEERRLHYGENGVQKDVSQSSIYSQTEEKAQGKSQKQITIPSQEQEHSQKANKISYQSSSTEERRLHYGENGVQKDVSQRSIYSQTEKLVAGKSQIQAPNPKQEPWHGENAKGESGQSTNREQDLLSHEQKGRHQHGSHGGLDIVIIEQEDDSDRHLAQHLNNDRNPLFT

Experiments:
[1] = target: T1, PSA (Homo sapiens, UniProt P07288); assay: Proteolytic cleavage of protein substrates by PSA (SDS-PAGE, silver staining); assay type: biochemical; details: 37°C; for time for degradation of half of the intact protein: substrate 1 µM (0.5 µM semenogelin I)
T1 construct: from tissue; host or cells: pooled human seminal fluid
T1 sequence (P07288 25-261): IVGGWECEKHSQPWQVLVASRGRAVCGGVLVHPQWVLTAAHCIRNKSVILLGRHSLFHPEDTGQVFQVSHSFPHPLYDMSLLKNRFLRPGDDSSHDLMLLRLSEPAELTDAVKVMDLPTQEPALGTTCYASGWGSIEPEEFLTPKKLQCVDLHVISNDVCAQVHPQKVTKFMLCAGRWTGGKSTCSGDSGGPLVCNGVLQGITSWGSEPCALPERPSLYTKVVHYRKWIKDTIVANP
Description: The major form of active PSA (isoform PSA-B) was purified from pooled human seminal fluid by immunoaffinity chromatography followed by anion exchange chromatography. Semenogelins I and II were isolated from human seminal fluid as previously described, but instead of alkylating the proteins, the reducing agent 30 mM dithiothreitol (Sigma-Aldrich, St. Louis, MO) was included in all buffers during purification. Semenogelins were stored in the purification buffer containing 2 M urea and 5 mM EDTA at −70°C. Prior to cleavage by PSA, the buffer was exchanged to 50 mM Tris, pH 7.7, containing 0.15 M NaCl (TBS), with Amicon Ultra centrifugal filter units (MW cut-off 30 kDa) (Millipore, Cork, Ireland) at 4°C, and protein concentration was determined by measuring absorbance at 280 nm.
Protein LoBind tubes (Eppendorf AG, Hamburg, Germany) were used in all protein degradation experiments.
PSA (0.2–1 µM) and 0.5–1 µM of each protein substrate were incubated at 37°C for 22 h in TBS buffer. During the incubation, samples of 15 µl were taken at different time points: 0 min, 10 min, 30 min, 2 h, 5 h and 22 h, and stored at −20°C before further analysis.
Immediately after each incubation, reducing 4× SDS-loading buffer (8% SDS), containing 1 M β-mercaptoethanol or 75 mM dithiothreitol, was added to each sample and proteins were denatured at 70°C for 10 min. The samples were immediately analyzed by SDS-PAGE or frozen at −20°C. Frozen samples were heated again at 70°C before loading on the gel. The cleavage of protein substrates by PSA, i.e., the disappearance of the full-length protein bands, was quantified from scanned images of silver stained gels by the measurement of relative optical densities of the protein bands using ImageJ [40].
Proteins were separated using the XCell SureLock Mini Cell system and pre-cast NuPAGE Novex 4–12% Bis-Tris Gels (both from Invitrogen, Carlsbad, CA). MES running buffer, pH 7.3, containing 50 mM MES [2-(N-morpholino)ethanesulfonic acid] (Sigma-Aldrich), 50 mM Tris base, 3.5 mM SDS and 1 mM EDTA was used. Dithiothreitol (0.5 mM) (Sigma-Aldrich) was added to the cathode buffer chamber.
Proteins were visualized either by silver staining or Western blotting. For silver staining (modified from), the gel was fixed for one hour at room temperature in 30% ethanol, containing 0.5% acetic acid, and rinsed with 20% ethanol and water for 10 min each. Then the gel was sensitized with 0.02% sodium thiosulfate for 1 min and rinsed twice with water. After 30 min incubation in 0.2% AgNO3, the gel was rinsed briefly with water and proteins were detected with development solution, containing 700 µl/l of 37% formaldehyde, 0.001% sodium thiosulfate and 3% anhydrous Na2CO3. The development reaction was finished with stop solution containing 5% Tris and 2.5% acetic acid.

[2] = system: HUVECs; assay: HUVEC tube formation assay on Matrigel; assay type: cell-based, human; details: two separate experiments
Description: Human umbilical vein endothelial cells (HUVECs) were isolated from umbilical cord veins and grown in Endothelial Cell Growth Medium (Promocell, Heidelberg, Germany) with 2% Ultroser G BioSepra serum substitute (PALL BioSepra, Cergy, France) and growth factors EGF and bFGF. For tube formation, HUVECs were grown on top of Matrigel (BD Biosciences) as described previously, [29].
To study the effect of PSA-cleaved protein fragments, 0.08 µM nidogen-1 or 0.4 µM galectin-3 (10 µg/ml each) were first incubated with 1 µM PSA for 24 h at 37°C in PBS (Lonza). Then PSA activity was blocked by one-hour incubation at room temperature with 2 µM monoclonal antibody 5C7 [38]. The mixture containing nidogen-1 or galectin-3 fragments with PSA blocked by antibody or the same amount of intact nidogen-1 or galectin-3 were added together with the cells onto gelled Matrigel and the cells were allowed to form tubular networks for 20 h. Control wells contained either PBS or 1 µM PSA. After overnight incubation, cell culture medium was collected from PBS and PSA control wells for SDS-PAGE and Western blotting. Images of tubular networks (100×magnification) were taken using an Axiovert 200 inverted light microscope connected to an AxioCam digital camera and visualized by AxioVision software (all from Zeiss, Göttingen, Germany).

[3] = target: T1, PSA; assay: N-terminal sequencing of nidogen-1 fragments generated by PSA; assay type: biochemical; details: recombinant human nidogen-1, 1 µM, 2 µM PSA, 22 h, 37°C; Edman degradation; UniProt P14543 numbering
Description: For N-terminal sequencing, 1 µM (10 µg) nidogen-1 was first incubated with 2 µM (5 µg) PSA for 22 h at 37°C. Then the resulting protein fragments were separated by SDS-PAGE and electroblotted onto polyvinylidene-difluoride (PVDF) membrane. After staining with Coomassie Brilliant Blue the protein fragments were directly sequenced by Edman-degradation using the Procise 494A Sequencer (Perkin Elmer Applied Biosystems, Foster City, CA).

[4] = target: T1, PSA; details: more than half of semenogelin I degraded; ref Malm and coworkers (2000), [16], [63]; cited from earlier work
Description: In the present study, we compared the proteolytic activity of PSA towards several protein substrates. As shown previously, semenogelins are cleaved very effectively by PSA. Malm and coworkers (2000) reported that more than half of semenogelin I is degraded after 15 min incubation with PSA [16], [63] and we observed this after 11 min incubation. Proteolysis of the other protein substrates, i.e., fibronectin, IGFBP-3, galectin-3 and nidogen-1, took much longer, reflecting the high substrate specificity of PSA for semenogelins. […] However, the detailed mechanism of the antiangiogenic activity of PSA remains unclear. Some of the proteolytically produced fragments of extracellular matrix (ECM) proteins act as endogenous angiogenesis inhibitors and may mediate the antiangiogenic effect of PSA. […] Although plasminogen ...

[5] = 0.2 µM PSA, TBS, disappearance of full-length band

Row | Molecule | time for degradation of half of the intact protein [1, 5] [min] | effect on tube formation, PSA-generated fragments ([2]; 10 µg/ml (0.08 µM nidogen-1, 0.4 µM galectin-3) precleaved by 1 µM PSA 24 h, PSA blocked by mAb 5C7, 20 h) | effect on tube formation, full-length protein ([2]; 10 µg/ml (0.08 µM nidogen-1, 0.4 µM galectin-3), 20 h, HUVECs on Matrigel) | time for degradation of 50% of the protein ([1]; 0.2 µM PSA, 1 µM substrate, TBS, disappearance of full-length band) [h] | size of nidogen-1 fragments formed by PSA ([1]; 1 µM PSA, 0.5 µM recombinant human nidogen-1, 20 h) | cleavage site of PSA in nidogen-1 [3] | incubation time with more than half degraded by PSA [4] [min]
1 | B1 | 80 | – | – | – | – | – | –
2 | B2 | – | did not have any effect on tube formation | did not have any effect on tube formation | 22 | 85 kDa and 55 kDa | GVVF^380 ↓ SYNTD | –
3 | B3 | 11 | – | – | – | – | – | 15
